From US20240151728A1 (KOREA INSTITUTE OF SCIENCE AND TECHNOLOGY, published 2024)
One block for each binder: values may come before it.

How the values were obtained:
[1] = biological target: T1, hMSLN recombinant protein (human mesothelin) (human, UniProt Q13421 296-598, limits assumed); experiment: SPR, BIAcore T200; hMSLN amine-coupled on CM5 chip, scFv injected; 1:1 Langmuir model; mean of three experiments
T1 construct: Amine-coupled to a CM5 chip for SPR; also called recombinant mesothelin (MSLN); biotinylated hMSLN recombinant protein
T1 sequence (Q13421 other isoform, or with tags, fused parts or gaps limits assumed): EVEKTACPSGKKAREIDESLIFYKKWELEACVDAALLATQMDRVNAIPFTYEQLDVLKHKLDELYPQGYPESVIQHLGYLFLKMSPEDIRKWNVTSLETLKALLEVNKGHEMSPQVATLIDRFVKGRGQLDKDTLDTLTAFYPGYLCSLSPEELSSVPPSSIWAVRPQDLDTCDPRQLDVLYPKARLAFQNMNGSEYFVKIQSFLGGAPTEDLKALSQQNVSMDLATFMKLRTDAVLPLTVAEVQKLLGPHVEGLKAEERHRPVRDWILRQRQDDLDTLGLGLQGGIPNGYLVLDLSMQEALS
Experimental: (§1) To measure the affinity of the selected variants, surface plasmon resonance (SPR) was performed by using a BIAcore T200 device. For analysis, hMSLN was immobilized on a CM5 sensor chip by using an amine coupling method. Experiments were performed by using HBS-EP buffer, and diluted samples of each scFv variant were injected at a rate of 30 μl/min for 120 seconds and dissociated for 5 minutes. After the first experiment, 5 mM NaOH and 0.5 M arginine at pH 8.0 were sequentially injected for 30 seconds to regenerate the chip. For each scFv variant, three separate experiments were averaged to determine a dissociation constant, and each dissociation constant was determined by using a 1:1 Langmuir model in BIAevaluation 3.2 software.

[2] = biological target: T1, hMSLN recombinant protein (human …); experiment: ELISA: 100 ng purified scFv coated per well, biotinylated hMSLN titrated, streptavidin-HRP, A450; the concentration varied is that of hMSLN
Experimental: (§2) Specifically, each well of the 96-well immune plate was coated with 100 ng of the scFv variants produced as recombinant proteins at 4° C. for 16 hours. After adding 100 μl of pH 7.4 PBS supplemented with 3% bovine serum albumin (BSA) to each well, the cells were incubated at room temperature for 1 hour, and the plate was washed three times with 350 μl of PBS-T. The biotinylated hMSLN recombinant protein was diluted to 1 μM, 200 nM, 40 nM, 8 nM, 1.6 nM, and 0.32 nM in the pH 7.4 PBS, and reacted at room temperature for 1 hour with each of the coated scFv antibodies. Afterwards, the cells were washed three times with 350 μl of PBS-T per well. Then, 50 μl of HRP-conjugated streptavidin diluted at 1:15,000 in the pH 7.4 PBS was added to the cells followed by incubation of the cells at room temperature for 1 hour, and washing three times with 350 μl of PBS-T. After adding 50 μl of TMB, the cells were incubated at room temperature for 15 minutes, the reaction was terminated by adding 50 μl of 2 M H₂SO₄, and the absorbance at 450 nm was measured.

[3] = biological target: T2, hMSLN recombinant protein (human mesothelin) (human, UniProt Q13421 296-598); experiment: as above
T2 sequence (Q13421 other isoform, or with tags, fused parts or gaps): as the sequence (Q13421 other isoform, or with tags, fused parts or gaps limits assumed) above
Experimental: as §2

[4] = biological target: T2, hMSLN recombinant protein (human …); experiment: SPR, BIAcore T200; hMSLN amine-coupled on CM5 chip, scFv injected; 1:1 Langmuir model; mean of three experiments
Experimental: as §1

Kd [1]: 11.2 nM
EC50 (read off the curve) [2]: ~40 nM
B1: wild-type M5 scFv (DFDY) (scFv)
scFv: QVQLVQSGAEVEKPGASVKVSCKASGYTFTDYYMHWVRQAPGQGLEWMGWINPNSGGTNYAQKFQGRVTMTRDTSISTAYMELSRLRSDDTAVYYCASGWDFDYWGQGTLVTVSSGGGGSGGGGSGGGGSGGGGSDIVMTQSPSSLSASVGDRVTITCRASQSIRYYLSWYQQKPGKAPKLLIYTASILQNGVPSRFSGSGSGTDFTLTISSLQPEDFATYYCLQTYTTPDFGPGTKVEIK
notes: Recombinant protein made in E. coli BL21(DE3) and purified; also called WT M5 scFv; WT DFDY

EC50 (read off the curve) [3]: ~40 nM
B2: DGAD (scFv)
chain: QVQLVQSGAEVEKPGASVKVSCKASGYTFTDYYMHWVRQAPGQGLEWMGWINPNSGGTNYAQKFQGRVTMTRDTSISTAYMELSRLRSDDTAVYYCASGWDGADWGQGTLVTVSSGGGGSGGGGSGGGGSGGGGSDIVMTQSPSSLSASVGDRVTITCRASQSIRYYLSWYQQKPGKAPKLLIYTASILQNGVPSRFSGSGSGTDFTLTISSLQPEDFATYYCLQTYTTPDFGPGTKVEIK

Kd [4]: 121 nM
B3: M5 scFv variant DVAY (scFv)
chain: QVQLVQSGAEVEKPGASVKVSCKASGYTFTDYYMHWVRQAPGQGLEWMGWINPNSGGTNYAQKFQGRVTMTRDTSISTAYMELSRLRSDDTAVYYCASGWDVAYWGQGTLVTVSSGGGGSGGGGSGGGGSGGGGSDIVMTQSPSSLSASVGDRVTITCRASQSIRYYLSWYQQKPGKAPKLLIYTASILQNGVPSRFSGSGSGTDFTLTISSLQPEDFATYYCLQTYTTPDFGPGTKVEIK
